Changes are numbered by the printed parent chain.
B1: M15 (antibody, V domains shown)
VH: QVQLQQSVAELVRPGASVKLSCTASGFNIQNTYIHWVKQRPEQGLEWIGKIDPANADTKYAPTFQGKATITADTSSNTAYLQLSSLTPEDTAIYYCARYRDYLFYYALGYWGQGTSVTVSS
VL: DIVMTQSAPSVPVTPGESVSISCRSSKSLLHSNANTYLYWFLQRPGQSPQLLIYRMSNLASGVPDRFSGSGSGTAFTLRISRVEAEDVGVYYCMQHLEYPYTFGGGTKLEIK
B2: M15-5 (antibody, V domains shown)
VH: QVQLVQSGAEVKKPGASVKVSCKASGFNIQNTYIHWVKQAPGQGLEWIGKIDPANADTKYAPTFQGRATITADTSTNTAYLELSSLRSEDTAVYYCARYRDYLFYYALGYWGQGTTVTVSS
VL: B1 VL with A8P, P9L, V11L, S18P, V19A, F41Y, R44K, A75D, R79K, G105Q
B3: Mab033 (antibody, V domains shown)
VH: EVQLQQSVAEFVRPGASVRLSCTASGFNIENTYIHWLKQRPEQGLEWIGRIDPANGDTQYDPKFQGKATLTAATSSNTAYLQLSGLTSEDTAIYYCTRYGDYLFYYSLKYWGQGTSVTVSS
VL: B1 VL with S7A, P12S, A34G, Y99S
B4: Mab032 (antibody, V domains shown)
VH: EVQLQQSVAELVRPGASVRLSCTGSGFNIENTYMHWLKQRPEQGLEWIGRIDPADGDTQYAPKFQGKATITTDTSSNTAYLQLSSLTSEDTAIYYCARYGNYLFYYSMDYWGQGTSVTVSS
VL: B1 VL with S7A, A34G, G73A, V90I
B5: Mpb416 (antibody, V domains shown)
VH: B1 VH with A56G
VL: B1 VL with A34G
B6: Mab031 (antibody, V domains shown)
VH: B4 VH with E30Q, M34I, L37V, D55N, Q59K, T72A, A97T, F104Y, M108L
VL: B1 VL with S7A, A34G, V88M

The binders below were run against human NKG2A/CD94 on the cell surface (CHOk1-hNKG2A/CD94 stable cell line) (human) (UniProt P26715) (assay: FACS on CHOK1-hNKG2A/CD94 cells).
With B1 the EC50 (read off the curve) was 0.8 nM.
Work on B2 yielded an EC50 (read off the curve) of 1 nM.

These binders were tested against human NKG2A/CD94 on the cell surface (CHOk1-hNKG2A/CD94 stable cell line) (human) (UniProt P26715) (assay: FACS on CHOK1-hNKG2A/CD94 cells, Alexa 488 secondary antibody).
B3 was tested, and the EC50 (read off the curve) was 0.8 nM.
In the case of B4, the EC50 (read off the curve) is reported as 0.8 nM.
Binder B5 has an EC50 (read off the curve) of 0.7 nM.
In the case of B6, the EC50 (read off the curve) is reported as 0.8 nM.

What follows are binders tested against human NKG2A/CD94 on the cell surface (CHOk1-hNKG2A/CD94 stable cell line) (human) (UniProt P26715) (assay: FACS blocking assay: HLA-E-PE binding to CHOk1-hNKG2A/CD94 cells in the presence of the antibody).
Work on B3 yielded an IC50 (read off the curve) of 1 nM.
For B4, the IC50 (read off the curve) was 1 nM.
Binder B6 has an IC50 (read off the curve) of 1 nM.
